Measurements as given in paper PMC11934139.

Molecular target: αCRP scFv-His6 (LA13-IIE3)
Experiment: BLI; αCRP scFv (2 μg/mL) immobilised on Octet Ni-NTA biosensors; CRP at 250, 125, 62.5, 15.6 and 7.8 nM; HBS Kinetics Buffer (1% heat-inactivated BSA, 0.2% Tween 20, 10 mM HEPES pH 7.4, 150 mM NaCl), 30 °C; two-state reaction model

B1: human C-reactive protein (natural protein)
chain: QTDMSRKAFVFPKESDTSYVSLKAPLTKPLKAFTVCLHFYTELSSTRGYSIFSYATKRQDNEILIFWSKDIGYSFTVGGSEILFEVPEVTVAPVHICTSWESASGIVEFWVDGKPRVRKSLKKGYTVGAEASIILGQEQDSFGGNFEGSQSLVGDIGNVNMWDFVLSPDEINTIYLGGPFSPNVLNWRALKYEVQGEVFTKPQLWP
Kd: 588 nM
